Experimental findings from paper PMC6539845 (International Journal of Molecular Sciences, 2019) are described below.

Broadly, the stoichiometry N is a count of units in the complex or per binding partner.

To fix the notation:
B1: human proteasome α4 subunit (natural protein, UniProt O14818 1-248, looked up)
chain: MSYDRAITVFSPDGHLFQVEYAQEAVKKGSTAVGVRGRDIVVLGVEKKSVAKLQDERTVRKICALDDNVCMAFAGLTADARIVINRARVECQSHRLTVEDPVTVEYITRYIASLKQRYTQSNGRRPFGISALIVGFDFDGTPRLYQTDPSGTYHAWKANAIGRGAKSVREFLEKNYTDEAIETDDLTIKLVIKALLEVVQSGGKNIELAVMRRDQSLKILNPEEIEKYVAEIEKEKEENEKKKQKKAS
notes: proteasome subunit α4 (PSMA7), human, residues 1-248; subcloned into the NdeI and SalI sites of pET28b; also called PSMA7
B2: human proteasome α2 subunit (natural protein, UniProt P25787 1-234, looked up)
chain: MAERGYSFSLTTFSPSGKLVQIEYALAAVAGGAPSVGIKAANGVVLATEKKQKSILYDERSVHKVEPITKHIGLVYSGMGPDYRVLVHRARKLAQQYYLVYQEPIPTAQLVQRVASVMQEYTQSGGVRPFGVSLLICGWNEGRPYLFQSDPSGAYFAWKATAMGKNYVNGKTFLEKRYNEDLELEDAIHTAILTLKESFEGQMTEDNIEVGICNEAGFRRLTPTEVKDYLAAIA
notes: proteasome subunit α2 (PSMA2), human, residues 1-234; subcloned into the NdeI and XhoI sites of pRSFDuet-1; no tag is named; also called PSMA2
B3: human proteasome α5 subunit (natural protein, UniProt P28066 1-241, looked up)
chain: MFLTRSEYDRGVNTFSPEGRLFQVEYAIEAIKLGSTAIGIQTSEGVCLAVEKRITSPLMEPSSIEKIVEIDAHIGCAMSGLIADAKTLIDKARVETQNHWFTYNETMTVESVTQAVSNLALQFGEEDADPGAMSRPFGVALLFGGVDEKGPQLFHMDPSGTFVQCDARAIGSASEGAQSSLQEVYHKSMTLKEAIKSSLIILKQVMEEKLNATNIELATVQPGQNFHMFTKEELEEVIKDI
notes: proteasome subunit α5 (PSMA5), human, residues 1-241; the vector holds a TEV protease cleavage site preceding the gene; also called PSMA5
B4: human proteasome α1 subunit (natural protein)
chain: not shown
notes: proteasome subunit α1 (PSMA6), human, residues 1-246; subcloned into the NdeI and SalI sites of pET28b; also called PSMA6
B5: human proteasome α3 subunit (natural protein, UniProt P25789 1-261, looked up)
chain: MSRRYDSRTTIFSPEGRLYQVEYAMEAIGHAGTCLGILANDGVLLAAERRNIHKLLDEVFFSEKIYKLNEDMACSVAGITSDANVLTNELRLIAQRYLLQYQEPIPCEQLVTALCDIKQAYTQFGGKRPFGVSLLYIGWDKHYGFQLYQSDPSGNYGGWKATCIGNNSAAAVSMLKQDYKEGEMTLKSALALAIKVLNKTMDVSKLSAEKVEIATLTRENGKTVIRVLKQKEVEQLIKKHEEEEAKAEREKKEKEQKEKDK
notes: proteasome subunit α3 (PSMA4), human, residues 1-261; the vector holds a TEV protease cleavage site preceding the gene; also called PSMA4

“And” between values parts separate entries of the source, which are not always exact repeats. Identical values can stand only once.

The target in the first data set is T1, human proteasome α7 subunit, wild type (human, UniProt P25788 1-255).
T1 construct: proteasome subunit α7 (PSMA3), human, residues 1-255; wild-type construct in pRSFDuet-1; also called PSMA3; α7 homotetradecamer; copies: 14
T1 sequence (P25788 whole entry, the tested form may be a part): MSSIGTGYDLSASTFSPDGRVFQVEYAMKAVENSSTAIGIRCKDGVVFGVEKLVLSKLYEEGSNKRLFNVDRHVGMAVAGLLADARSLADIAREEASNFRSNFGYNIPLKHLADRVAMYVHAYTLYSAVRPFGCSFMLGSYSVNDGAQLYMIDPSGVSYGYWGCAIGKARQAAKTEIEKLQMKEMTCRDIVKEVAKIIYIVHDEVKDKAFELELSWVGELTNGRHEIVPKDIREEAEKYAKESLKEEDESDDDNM
In words: native MS; α4 or α6 (4 μM monomers) mixed with α7 (2 μM tetradecamer), 20 °C, 1 h, 150 mM ammonium acetate. As to conditions: both partners purified.
For B1, the “stoichiometry N” value is 7 α7 subunits per α4 and 14 α7 subunits per α4.

A further data set deals with the molecule itself. In words: native MS; single proteins, 5–20 μM monomers, 150 mM ammonium acetate (pH 6.8–8.0), nanoflow electrospray.
Settings: not given
Take B2: the “stoichiometry N” value came out at 2. Consider B3, for which the “stoichiometry N” value is 2. Same read-out and setting: in the case of B4 it was 2; in that of B1, 2. On the same count and under the same terms, in the case of B5 it was 2.
